Measurements as given in US20210340252A1.

Molecular target: human TIM-3 protein (coated on ELISA plates) (human) (UniProt Q8TDQ0)
Experiment: competition ELISA on plate-coated human TIM-3 against biotinylated WBP340-BMK8 (self-competition), detection with SA-HRP

- IC50 (read off the curve): 2 nM
B1: WBP340-BMK8 (antibody, from another filing, human IgG4, V domains shown)
VH: QVQLVQSGAEVKKPGSSVKVSCKASGYTFTSYNMHWVRQAPGQGLEWMGDIYPGNGDTSYNQKFKGRVTITADKSTSTVYMELSSLRSEDTAVYYCARVGGAFPMDYWGQGTTVTVSS
VL: AIQLTQSPSSLSASVGDRVTITCRASESVEYYGTSLMQWYQQKPGKAPKLLIYAASNVESGVPSRFSGSGSGTDFTLTISSLQPEDFATYFCQQSRKDPSTFGGGTKVEIKR
